T1: human TROP2-his protein (human, UniProt P09758 27-274)
T1 construct: also called biotin labeled human TROP2-his protein
T1 sequence: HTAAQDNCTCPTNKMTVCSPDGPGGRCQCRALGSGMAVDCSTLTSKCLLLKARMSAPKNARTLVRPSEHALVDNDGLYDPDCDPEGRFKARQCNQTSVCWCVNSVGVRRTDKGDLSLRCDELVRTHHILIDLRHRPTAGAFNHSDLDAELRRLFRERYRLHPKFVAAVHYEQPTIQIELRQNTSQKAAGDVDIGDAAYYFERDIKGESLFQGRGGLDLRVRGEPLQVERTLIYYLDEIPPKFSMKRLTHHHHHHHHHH

T2: cynomolgus TROP2-his protein (cynomolgus, UniProt P09758 27-272 (human entry), limits assumed)
T2 construct: also called Cyno TROP2-his; Cynomolgus monkey TROP2-his protein
T2 chain: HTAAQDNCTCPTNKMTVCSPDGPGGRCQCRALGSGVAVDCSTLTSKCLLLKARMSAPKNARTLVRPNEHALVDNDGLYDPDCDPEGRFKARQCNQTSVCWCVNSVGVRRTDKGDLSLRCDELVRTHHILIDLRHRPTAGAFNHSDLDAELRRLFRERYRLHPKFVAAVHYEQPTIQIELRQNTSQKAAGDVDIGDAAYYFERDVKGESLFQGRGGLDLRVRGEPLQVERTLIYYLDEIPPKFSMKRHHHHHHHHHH

T3: full length human TROP2 on 293F-TROP2 cells (clone ID #3A8) (human, UniProt P09758 27-323)
T3 sequence: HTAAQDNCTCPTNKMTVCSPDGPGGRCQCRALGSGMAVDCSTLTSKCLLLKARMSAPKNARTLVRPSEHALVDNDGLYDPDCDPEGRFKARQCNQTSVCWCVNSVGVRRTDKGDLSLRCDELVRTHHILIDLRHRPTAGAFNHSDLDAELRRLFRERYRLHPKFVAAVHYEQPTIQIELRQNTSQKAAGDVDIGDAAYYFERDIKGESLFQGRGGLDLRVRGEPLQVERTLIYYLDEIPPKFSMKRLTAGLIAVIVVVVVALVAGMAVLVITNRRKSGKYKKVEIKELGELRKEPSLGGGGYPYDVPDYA

B1: sacituzumab (benchmark, an analog of sacituzumab, in house made) (antibody, human IgG1, kappa, V domains shown)
VH: SVQLQQSGSELKKPGASVKVSCKASGYTFTNYGMNWVKQAPGQGLKWMGWINTYTGEPTYTDDFKGRFAFSLDTSVSTAYLQISSLKADDTAVYFCARGGFGSSYWYFDVWGQGSLVTVSS
VL: DIQLTQSPSSLSASVGDRVSITCKASQDVSIAVAWYQQKPGKAPKLLIYSASYRYTGVPDRFSGSGSGTDFTLTISSLQPEDFAVYYCQQHYITPLTFGAGTKVEIKR
notes: also called BM; BM1
B2: single domain antibody 01-9F (VHH)
VHH: QVQLVESGGGSVQAGGSLRLSCVVSGLPYERYCVAWFRQGPGKEREGVARILSDGTTSYSDSVKGRFTISKDNAKNTLYLQMNSLKSEDTATYYCAAEAFRPFTPSDGDCTTVLGIDYWGKGTPVTVSS

Experiments:
human TROP2-his protein [1] = biological target: T1, human TROP2-his protein; assay: SPR Biacore T200; antibody captured on anti-human IgG CM5 chip, TROP2-his as analyte in 2-fold dilutions from 160 nM; 1:1 Langmuir fit
Excerpt: The purified anti-TROP2 mouse monoclonal antibodies (mAbs) were characterized for binding affinity and binding kinetics by Biacore T200 system (GE healthcare, Pittsburgh, PA, USA). Briefly, goat anti-human IgG (GE healthcare, Cat #BR100839, Human Antibody Capture Kit) was covalently linked to a CM5 chip (carboxy methyl dextran coated chip from GE healthcare #BR100530) via primary amines, using a standard amine coupling kit (GE healthcare, Pittsburgh, PA, USA) provided by Biacore. Un-reacted moieties on the chip (biosensor) surface were blocked with ethanolamine. The anti-TROP2 antibodies of the disclosure and the benchmark at the concentration of 2 μg/ml were respectively flowed onto the chip at a flow rate of 10 μL/min. Then, serially diluted human TROP2-his protein (prepared in-house with SEQ ID NO: 16), or cynomolgus TROP2-his protein (prepared in-house with SEQ ID NO: 19), 2-fold dilution in HBS-EP⁺ buffer (provided by Biacore) starting at 160 nM, were flowed onto the chip at a flow rate of 30 μL/min. The antigen-antibody association kinetics was followed for 2 minutes and the dissociation kinetics was followed for 10 minutes. The association and dissociation curves were fit to a 1:1 Langmuir binding model using BIAcore evaluation software.

human TROP2-his protein [2] = biological target: T1, human TROP2-his protein; assay: SPR Biacore; antibody captured on anti-human IgG chip, TROP2-his as analyte
[3] = biological target: T2, cynomolgus TROP2-his protein; assay: as above
[4] = biological target: T3, full length human TROP2 on 293F-TROP2 …; assay: cell based binding FACS (MFI) on 293F-TROP2 cells expressing human TROP2; unit taken from the x axis (nM)
Procedure: Cells were washed twice with FACS buffer, and added with 100 μL/well R-Phycoerythrin AffiniPure Goat Anti-Human IgG, Fey fragment specific (1:1000 dilution in FACS buffer, Jackson Immunoresearch, Cat #109-115-098). Following an incubation of 40 minutes at 4° C. in dark, cells were washed twice and re-suspended in FACS buffer. Fluorescence was measured using a Becton Dickinson FACS Canto II-HTS equipment, and the MFI (mean fluorescence intensity) was plotted against antibody concentration. Data was analyzed using Graphpad Prism software and EC₅₀ values were reported.

human TROP2-his protein [5] = biological target: T1, human TROP2-his protein; assay: competitive ELISA: soluble benchmark pre-mixed with biotin labeled human TROP2-his, added to plate coated with the benchmark (self-competition); unit taken from the x axis (ng/mL)
Procedure: (§1) The anti-TROP2 antibodies were tested for their epitope binding in a competitive ELISA assay. Briefly, 100 μl of the benchmark at 1 μg/mL in PBS was coated on 96-well micro plates for 2 hours at 37° C. ELISA plates were washed once with wash buffer (PBS+0.05% v/v Tween-20, PBST) and then blocked with 200 μl blocking buffer (5% w/v non-fatty milk in PBST) for 2 hours at 37° C. While blocking, the anti-TROP2 antibodies of the disclosure or controls were diluted with biotin labeled human TROP2-his protein (SEQ ID NO: 16, 34 ng/mL in 2.5% w/v non-fatty milk in PBST), starting at 80 nM with a 5-fold serial dilution, and incubated at room temperature for 40 minutes. After plate washing 4 times, the antibody/TROP2-his protein mixtures were added to benchmark coated plates, 100 μl per well. After incubation at 37° C. for 40 minutes, plates were washed 4 times again using wash buffer. Then the plates were added and incubated with 100 μl Peroxidase Streptavidin (1:10000 dilution in PBST buffer, Jackson Immunoresearch, Cat #016-030-084) for 40 minutes at 37° C. Plates were washed again using wash buffer. […] The absorbance of each well was read on a microplate reader using dual wavelength mode with 450 nm for TMB and 630 nm as the reference wavelength, and the OD (450-630) values were plotted against antibody concentration. Data was analyzed using Graphpad Prism software and IC₅₀ values were reported.

human TROP2-his protein [6] = biological target: T1, human TROP2-his protein; assay: competitive ELISA: antibody pre-mixed with biotin labeled human TROP2-his, added to plate coated with the benchmark (sacituzumab analog); unit taken from the x axis (ng/mL)
Procedure: as §1

Binder	Kd (human TROP2-his protein [1]) [pM]	koff (human TROP2-his protein [1]) [s⁻¹]	kon (human TROP2-his protein [1]) [M⁻¹ s⁻¹]	Kd (human TROP2-his protein [2]) [pM]	koff (human TROP2-his protein [2]) [s⁻¹]	kon (human TROP2-his protein [2]) [M⁻¹ s⁻¹]	Kd [3] [pM]	koff [3] [s⁻¹]	kon [3] [M⁻¹ s⁻¹]	EC50 [4] [pM]	IC50 (human TROP2-his protein [5]) [µg/mL]	IC50 (human TROP2-his protein [6]) [µg/mL]
B1	409	0.000116	284000	554	0.000286	516000	436	0.000228	522000	706	0.0543	
B2	26.2	8.11e-06	309000	291	0.00017	586000	285	0.00015	525000	530		0.0274

Reference: US20230383007A1 (BIOSION, published 2023)
